Measurements: paper PMC7488863, “Overexpression of transcription factor SlWRKY28 improved the tolerance of Populus davidiana × P. bolleana to alkaline salt stress”

B1: W-box probe (Biotin-Pr) (dsDNA)
DNA 1: GGAACTTGACCTTGACCTTAGGGCTGCAGGAATTCG
DNA 2: CGAATTCCTGCAGCCCTAAGGTCAAGGTCAAGTTCC
B2: W-box cold probe (Cold-Pr) (dsDNA)
DNA 1: B1 DNA 1
DNA 2: B1 DNA 2

Legend:
GST-SlWRKY28 [1] = biological target: T1, GST-SlWRKY28 (Salix linearistipularis, UniProt A0A4D6JIT6 1-474); experiment: EMSA; EMSA/gel-shift binding buffer (Beyotime kit, 5x stock, 2 uL per 10 uL reaction), 25 C, 20 min; salt and pH not stated; details: protein: recombinant; tags: N-terminal GST (pGEX-6p-3); label: biotin (both probe strands); blunt
T1 sequence (A0A4D6JIT6 entry or part of it): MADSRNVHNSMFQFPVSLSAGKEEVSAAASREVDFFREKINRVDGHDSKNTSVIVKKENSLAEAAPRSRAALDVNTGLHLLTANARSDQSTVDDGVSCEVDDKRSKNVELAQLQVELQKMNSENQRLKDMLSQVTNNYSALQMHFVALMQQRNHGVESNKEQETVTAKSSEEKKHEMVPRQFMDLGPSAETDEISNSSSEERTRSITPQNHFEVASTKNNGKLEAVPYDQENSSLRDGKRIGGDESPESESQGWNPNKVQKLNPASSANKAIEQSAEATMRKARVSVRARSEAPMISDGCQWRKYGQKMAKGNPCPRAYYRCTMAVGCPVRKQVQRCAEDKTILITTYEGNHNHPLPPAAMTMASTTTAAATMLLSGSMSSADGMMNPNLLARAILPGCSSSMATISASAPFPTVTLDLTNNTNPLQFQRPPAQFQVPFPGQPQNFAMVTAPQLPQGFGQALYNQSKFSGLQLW

GST-SlWRKY28 [2] = biological target: T1, GST-SlWRKY28; experiment: competition; 10x and 50x unlabeled probe against Biotin-Pr; complex signal weak with cold probe; EMSA/gel-shift binding buffer (Beyotime kit, 5x stock, 2 uL per 10 uL reaction), 25 C, 20 min; salt and pH not stated; details: protein: recombinant; tags: N-terminal GST (pGEX-6p-3); blunt

Row | Binder | binding result (GST-SlWRKY28 [1]) | binding result (GST-SlWRKY28 [2])
1 | B1 | binds | –
2 | B2 | – | binds
